For test [1], the target named is T1, human CD8 (as used in SPR) (human, UniProt P01732 22-182).
T1 construct: also called huCD8
Description: SPR. (In general: Surface plasmon resonance follows binding to a sensor surface in real time, without labels.)

In test [2] the target is T2, cynomolgous CD8 (as used in SPR) (cynomolgous monkey).
T2 construct: also called cyno CD8
The experiment in a line: SPR, Fab.

For test [3], the target named is T3, human CD8 on cells (FACS) (human, UniProt P01732 22-235).
T3 construct: whole, on cells
T3 sequence (P01732 22-235): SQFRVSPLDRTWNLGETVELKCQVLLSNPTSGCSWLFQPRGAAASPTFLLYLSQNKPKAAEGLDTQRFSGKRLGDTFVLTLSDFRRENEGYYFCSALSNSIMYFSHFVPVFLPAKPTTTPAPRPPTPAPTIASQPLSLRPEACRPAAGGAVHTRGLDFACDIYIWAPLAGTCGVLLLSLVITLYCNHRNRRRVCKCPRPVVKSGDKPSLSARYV
The experiment in a line: FACS. On the technique in general: A flow cytometer gives signals particle by particle.

In test [4] the target is T4, cynomolgous CD8 on cells (FACS) (cynomolgous monkey).
T4 construct: whole, on cells; also called cyno CD8
The experiment in a line: FACS.

The target of test [5] is T5, rhesus CD8 on cells (FACS) (rhesus monkey, UniProt P01732 23-235 (human entry)).
T5 construct: also called rhesus monkey CD8
T5 sequence (P01732 other isoform, or with tags, fused parts or gaps limits assumed): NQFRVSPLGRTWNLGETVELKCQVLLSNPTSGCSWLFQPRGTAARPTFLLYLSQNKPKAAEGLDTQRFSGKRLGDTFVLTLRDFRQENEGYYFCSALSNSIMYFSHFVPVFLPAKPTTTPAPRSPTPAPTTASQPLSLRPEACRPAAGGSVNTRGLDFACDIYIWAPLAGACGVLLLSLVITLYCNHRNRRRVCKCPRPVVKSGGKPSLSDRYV
Description: FACS.

For test [6], the target named is T2, cynomolgous CD8 (as used in SPR). The experiment in a line: SPR (Fab, by paragraph 255).
The target of test [7] is T1, human CD8 (as used in SPR). The experiment in a line: SPR (Fab, by paragraph 255).
In test [8] the target is T2, cynomolgous CD8 (as used in SPR). Description: SPR.
In test [9] the target is T1, human CD8 (as used in SPR). The experiment in a line: SPR, Fab.
Test [10] concerns the target T6, rat CD8 on CD8+ cells isolated from rat blood (rat, UniProt P07725 27-236).
T6 construct: whole, on cells
T6 sequence (looked up): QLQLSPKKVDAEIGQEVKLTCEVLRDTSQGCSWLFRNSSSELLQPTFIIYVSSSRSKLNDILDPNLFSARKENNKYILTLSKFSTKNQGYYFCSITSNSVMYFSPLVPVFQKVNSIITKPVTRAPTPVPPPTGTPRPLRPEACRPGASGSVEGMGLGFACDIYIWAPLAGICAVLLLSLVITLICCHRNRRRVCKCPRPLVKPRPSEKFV
The experiment in a line: FACS with CD8+ cells isolated from rat blood.

For test [11], the target named is T7, mouse CD8 on CD8+ cells isolated from mouse blood (mouse, UniProt P01731 28-247).
T7 construct: whole, on cells
T7 sequence (P01731 28-247): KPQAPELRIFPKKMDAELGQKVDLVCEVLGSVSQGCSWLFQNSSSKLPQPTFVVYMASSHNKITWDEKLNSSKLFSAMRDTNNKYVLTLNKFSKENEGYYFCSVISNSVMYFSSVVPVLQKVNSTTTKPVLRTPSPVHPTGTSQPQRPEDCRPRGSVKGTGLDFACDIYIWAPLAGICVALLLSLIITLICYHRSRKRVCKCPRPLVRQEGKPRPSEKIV
The experiment in a line: FACS with CD8+ cells isolated from mouse blood.

The target in test [12] is T3, human CD8 on cells (FACS). The experiment in a line: FACS titration on cells carrying human CD8 (legend paragraph 23: CHO cells expressing recombinant human CD8; text paragraph 256: PBMCs).

Changes are numbered by the printed parent chain.

The record followed here is patent US20200172620A1 (Genentech, published 2020).

T1 sequence (P01732 22-182): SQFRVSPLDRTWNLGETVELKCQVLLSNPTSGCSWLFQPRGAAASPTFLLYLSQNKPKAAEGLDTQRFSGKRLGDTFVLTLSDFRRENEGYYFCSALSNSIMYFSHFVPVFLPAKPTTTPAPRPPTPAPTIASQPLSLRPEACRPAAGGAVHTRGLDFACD

B1: huOKT8.v9 (Fab, V domains shown)
VH: EVQLVQSGAEVKKPGASVKVSCKASGFNIKDTYIHWVRQAPGQGLEWIGRIDPANDNTLYASKFQGRATITADTSTSTAYLELSSLRSEDTAVYYCGRGYGYYVFDHWGQGTLVTVSS
VL: DVQITQSPSSLSASVGDRVTITCRTSRSISQYLAWYQEKPGKTNKLLIYSGSTLQSGIPSRFSGSGSGTDFTLTISSLQPEDFATYYCQQHNEFPVTFGQGTKVEIKR
notes: also called OKT.v9 Fab
As to B1, in [1], the “Ratio of KD huOKT8.v1/KD variant for binding to huCD8” value (from here on “Ratio of KD huOKT8.v1/KD variant”) is 37 X. The “fold improvement in binding compared to huOKT8.v1” value in test [2] was 50 fold. Moreover, the Kd (in general, the constant that tells how readily two partners part at equilibrium) in test [3] was determined as 2 nM; in test [4], 44 nM; in test [5], 121 nM; in test [6], 103 nM; in test [7], 0.3 nM.

B2: huOKT8.v1 (antibody, V domains shown)
VH: B1 VH
VL: DVQITQSPSSLSASVGDRVTITCRTSRSISQYLAWYQEKPGKTNKLLIYSGSTLQSGIPSRFSGSGSGTDFTLTISSLQPEDFATYYCQQHNENPLTFGQGTKVEIK
Take B2: the affinity in test [8], expressed as Kd, was 5250 nM.

B3: huOKT8.v12 (antibody, V domains shown)
VH: B1 VH
VL: B2 VL with H91V, N94F, L96V
Consider B3, for which the “Ratio of KD huOKT8.v1/KD variant” value in [1] was found to be 73 X.

B4: huOKT8.v11 (Fab, V domains shown)
VH: B1 VH
VL: B1 VL with H91V, V96P
notes: also called OKT.v11 Fab
Turning to B4, in test [1], the “Ratio of KD huOKT8.v1/KD variant” value is 37 X. In addition, the “fold improvement in binding compared to huOKT8.v1” value in test [2] is 230 fold; in test [9], 55 fold. For the same molecule, the Kd in test [3] was determined as 2 nM; in test [4] it was 13 nM; in [5] it was 20 nM; in test [6] it was 23 nM; in test [7] it was 0.2 nM. The binding result in test [10] and in test [11] was “no binding” each time. For the same molecule, in [12], the half-maximal effective concentration (EC50 (read off the curve)) (as a rule, the concentration needed to bring the measured effect to its halfway point) was ~0.8 µg/mL.

B5: huOKT8.v10 (antibody, V domains shown)
VH: B1 VH
VL: B1 VL with V96P
notes: The entries as printed are a Fab heavy chain and a whole kappa light chain
For B5, the “Ratio of KD huOKT8.v1/KD variant” value in test [1] was 18 X.

B6: huOKT8.v17 (antibody, V domains shown)
VH: B1 VH
VL: B1 VL with Q31K, H91V
notes: as for B5
In the case of B6, the “Ratio of KD huOKT8.v1/KD variant” value in [1] was 210 X.

B7: huOKT8.v15 (antibody, V domains shown)
VH: B1 VH with S62R, G97T, H107T
VL: B1 VL with H91V
notes: as for B5
In the case of B7, the “Ratio of KD huOKT8.v1/KD variant” value in test [1] came out at 210 X.
